One data set deals with OaAEP1b-C247A-Δ351. The data set is described as follows: Active site titration by FRET ligation assay with covalent inhibitor. Format: biochemical, Oldenlandia affinis. The note with it: 1 hour incubation with Ac-YVAD-cmk, enzyme 280 nM. Here is the method:
Active site titration: The procedure described in reference was followed. The enzyme preparation was diluted to a concentration of 280 nM using a buffer containing 20 mM sodium phosphate at pH 6.5, 5 mM 2-Mercaptoethanol. Solutions containing serial twofold dilution of inhibitor YVAD-cmk were prepared in a black microtiter plate (Greiner Bio-One) using buffer as diluent. The enzyme was subsequently added to the wells containing the inhibitor to a final volume of 50 μL. The plate was incubated for 1 hour at room temperature before adding FRET peptides (PIE {EDANS} YNAL (SEQ ID NO:18) and GIK {DABSYL} SIP (SEQ ID NO: 19)), which were mixed at a molar ratio of 1:3 giving a final enzyme: substrate molar ratio of 1:200. The EDANS fluorescence signal was measured with an excitation wavelength of 336 nm and an emission wavelength of 490 nm. Relative fluorescence units (RFU) of quenched EDANS signal were plotted against time. The value of the initial velocity (Vi) was determined from the slope of the RFU (t) curve. The measured value of Vi was subsequently normalized by dividing with the initial rate obtained in the absence of inhibitor (control V0). The calculated Vi/V0 ratio was plotted against inhibitor concentrations, generating an inhibition curve. […]

The nature of data set [1]: Storage stability of the purified enzyme. In kind it is physicochemical. Conditions: −80° C. How it is done: Refolding and purification of constitutively active OaAEP1b-C247A-4351 using dialysis method: With all steps performed at 4° C., protein purification was achieved by resuspending thawed pellets in 30 mL of lysis buffer (100 mM Bis-Tris, pH 6.5, 500 mM NaCl, 10% (v/v) glycerol), sonicating the pellets followed by clearing the lysates by centrifugation at 58,000 g for 45 min. The insoluble fraction was resolubilized in 10 mL of resolubilizing buffer (50 mM Bis-Tris, pH 6.5, 150 mM NaCl, 1 mM EDTA, 50 mM Glycine, 8 M urea) overnight, with agitation. The concentration of denatured protein was determined using nanodrop and diluted to ˜2 mg mL-1 with buffer 1 (50 mM Bis-Tris, pH 6.5, 150 mM NaCl, 500 mM L-Arginine, 1 M urea, 0.25 mM L-Glutathione oxidized, 2.5 mM L-Glutathione reduced). The diluted denatured protein was dialyzed against buffer 2 (50 mM Bis-Tris, pH 6.5, 150 mM NaCl, 200 mM L-Arginine, 0.125 mM L-Glutathione oxidized, 1.25 mM L-Glutathione reduced) for 8 hr, followed by two buffer exchanges with buffer 3 (20 mM Bis-Tris, pH 6.5, 150 mM NaCl), for a duration of 8 hr for each buffer exchange. The refolded proteins were purified by affinity chromatography (HisTrap column, Cytiva), followed by size exclusion chromatography (HiLoad 16/600 Superdex 200, Cytiva). The proteins eluted as monomers during size exclusion purification. […]

For data set [2], the system named is linear NH2-GLPVSTKPVATRNAL-COOH peptide substrate. The data set is described as follows: Peptide cyclization assay (MALDI-TOF MS). Conditions: 37° C., after twelve minutes of reaction time. Format: biochemical. How it is done:
Peptide cyclization assay: The peptide used for cyclization assay was purchased commercially from GenScript, NH2-GLPVSTKPVATRNAL-COOH (SEQ ID NO:17). Cyclization assays were performed in 50 μl reaction mixtures containing 20 mM phosphate buffer, pH 6.5, ligases (40 nM) and peptide substrates (20 μM). Reaction was performed at 37° C., for 1 hour. The cyclization product was analyzed by MALDI-TOF MS (ABI 4800 MALDI TOF/TOF).
To evaluate the cyclization activity of the purified OaAEP1b-C247A-Δ351, the enzyme was tested against a linear NH2-GLPVSTKPVATRNAL-COOH (SEQ ID NO:17) peptide substrate (labelled “LS”) (FIG. 6A). The cyclization reaction was performed at 37° C., and samples were collected every two minutes. MALDI-TOF MS was subsequently utilized to detect a cyclized product (labelled “CP”). Successful cyclization carried out by the active ligase of the LS with a mass of 1524 Da would result in CP with a mass of 1321 Da (FIG. 6A). After twelve minutes of reaction time, OaAEP1b-C247A-Δ351 had converted the majority of the linear substrate to the circularized product. No LS peak could be detected compared to a high CP peak detected in the MALDI-TOF mass spectra of the reaction mixture.

This is an account of results in patent publication US20250283065A1, “TRUNCATED POLYPEPTIDES HAVING PROTEIN LIGASE ACTIVITY AND METHODS OF PRODUCTION THEREOF” (NANYANG TECHNOLOGICAL UNIVERSITY, priority 2022, published 2025).

B1: OaAEP1b-C247A-Δ351: truncated OaAEP1b-C247A construct, residues 352-474 deleted, D351 as C-terminus; constitutively active peptide asparaginyl ligase (protein)
chain: GTRWAVLIAGSKGYANYRHQAGVCHAYQILKRGGLKDENIVVFMYDDIAYNESNPRPGVIINSPHGSDVYAGVPKDYTGEEVNAKNFLAAILGNKSAITGGSGKVVDSGPNDHIFIYYTDHGAAGVIGMPSKPYLYADELNDALKKKHASGTYKSLVFYLEACESGSMFEGILPEDLNIYALTSTNTTESSWCYYCPAQENPPPPEYNVCLGDLFSVAWLEDSDVQNSWYETLNQQYHHVDKRISHASHATQYGNLKLGEEGLFVYMGSNPANDNYTSLDGNALTPSSIVVNQRDAD
For the molecule B1, the “fraction of the measured protein concentration that is active and amenable to complete inhibition” value in the data set with OaAEP1b-C247A-Δ351 is “about 53%”. Moreover, in data set [1], the storage stability result is listed as “up to two years”. The “cyclization of linear substrate to cyclized product” value in data set [2] is “complete cyclization reaction”.
